Measurements: US20190032056

Tests used:
[1] = molecular target: complement Factor D (fD) in C1q-depleted human serum (Homo sapiens) (UniProt P00746); assay: inhibition; conditions: hemolysis; non-specific control oligo
[2] = molecular target: complement Factor D (fD) (Homo sapiens) (UniProt P00746); assay: inhibition; conditions: control oligo
[3] = molecular target: complement Factor D (fD) (Homo sapiens) (UniProt P00746); assay: flow; conditions: 2'-F G, 2'-OMe A,C,U, 37 C
[4] = SB1T, 100 nM AFD Fab reduces signal about 75-90%

complement Factor D (fD) (Homo sapiens), sequence (P00746 26-253): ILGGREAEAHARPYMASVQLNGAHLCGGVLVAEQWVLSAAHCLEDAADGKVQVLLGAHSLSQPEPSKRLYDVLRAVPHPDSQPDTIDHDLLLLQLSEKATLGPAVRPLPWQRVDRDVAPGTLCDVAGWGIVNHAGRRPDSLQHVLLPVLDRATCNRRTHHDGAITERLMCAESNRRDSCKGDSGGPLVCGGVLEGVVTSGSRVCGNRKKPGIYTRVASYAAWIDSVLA
complement Factor D (fD) in C1q-depleted human serum (Homo sapiens), sequence (P00746 26-253): as above

Work on C8 non-specific control oligo yielded an IC50 [1] greater than 160 nM and an activity (% esterase activity) [2] of 105.

In the case of “GGGAGUGUGUACGAGGCAUUAGGCCGCCNNNNNNNNNNNNNNNNNNNNNNNNNNNNNNGGCGGCUUUGAUACUUGAUCGCCCUAGAAGC [N30S library round 6]”, the Kd ([3]; SB1T with BSA and ssDNA, bead-immobilized fD) is reported as 34.4 nM.

Substance “GGGAGUGUGUACGAGGCAUUAGGCCGCCNNNNNNNNNNNNNNNNNNNNNNNNNNNNNNGGCGGCUUUGAUACUUGAUCGCCCUAGAAGC [N30S library round 7]” has a Kd [3, 4] of 45.1 nM.

“GGGAGUGUGUACGAGGCAUUAGGCCGCCNNNNNNNNNNNNNNNNNNNNNNNNNNNNNNGGCGGCUUUGAUACUUGAUCGCCCUAGAAGC [N30S library round 8]” gave a Kd [3, 4] of 8.8 nM.
